# Measured values reported in patent US20250152627A1, “COMPOSITIONS AND METHODS FOR ENHANCING IMMUNE CELL FUNCTION USING MODIFIED CELLS WITH GLYCOCALYX EDITING ENZYMES” (Cornell University, priority 2021, published 2025).
# B1: StcE-ΔX409: StcE with a deleted C-terminal X409 lectin domain; NK cells treated with it: StcE-ΔX409 NK (protein)
# chain: ADNNSAIYFNTSQPINDLQGSLAAEVKFAQSQILPAHPKEGDSQPHLTSLRKSLLLVRPVKADDKTPVQVEARDDNNKILGTLTLYPPSSLPDTIYHLDGVPEGGIDFTPHNGTKKIINTVAEVNKLSDASGSSIHSHLTNNALVEIHTANGRWVRDIYLPQGPDLEGKMVRFVSSAGYSSTVFYGDRKVTLSVGNTLLFKYVNGQWFRSGELENNRITYAQHIWSAELPAHWIVPGLNLVIKQGNLSGRLNDIKIGAPGELLLHTIDIGMLTTPRDRFDFAKDKEAHREYFQTIPVSRMIVNNYAPLHLKEVMLPTGELLTDMDPGNGGWHSGTMRQRIGKELVSHGIDNANYGLNSTAGLGENSHPYVVAQLAAHNSRGNYANGIQVHGGSGGGGIVTLDSTLGNEFSHEVGHNYGLGHYVDGFKGSVHRSAENNNSTWGWDGDKKRFIPNFYPSQTNEKSCLNNQCQEPFDGHKFGFDAMAGGSPFSAANRFTMYTPNSSAIIQRFFENKAVFDSRSSTGFSKWNADTQEMEPYEHTIDRAEQITASVNELSESKMAELMAEYAVVKVHMWNGNWTRNIYIPTASADNRGSILTINHEAGYNSYLFINGDEKVVSQGYKKSFVSDGQFWKERDVVDTREARKPEQFGVPVTTLVGYYDPEGTLSSYIYPAMYGAYGFTYSDDSQNLSDNDCQLQVDTKEGQLRFRLANHRANNTVMNKFHINVPTESQPTQATLVCNNKILDTKSLTPAPEGLTYTVN
# What was measured:
# [1] = tested on: Muc1-GFP expressing 1E7 cells; assay: Removal of cell-surface mucin from 1E7 cells (confocal imaging, GFP nanobody); assay type: cell-based; details: 100 nM enzyme
# Protocol: FIG. 11. StcE mucinase effectively remove cell-surface mucin on 1E7 clone and NK cell. (A) Representative confocal images of Muc1-GFP expressing 1E7 cells with and without treatment with 100 nM StcE, StcE ΔX409, or StcE-EE Zip; Alexa Fluor 647 conjugated to GFP nanobody is used to probe cell-surface Muc1-GFP constructs. (Scale bar, 10 μm). (B) Quantification of mean fluorescence intensity of Muc1-GFP and cell-surface Muc1-GFP probed with GFP nanobody in 1E7 cells treated with the indicated concentration of StcE mucinase; results are shown for induction of Muc1-GFP at 100 ng/ml and 1000 ng/ml doxycycline. (C) Cytotoxicity of NK-92 cells against 1E7 cells treated with control buffer, 100 nM StcE mucinase, or 5,000 U/mL PNGase F for 1 hour; Muc1-GFP induction is at the indicated doxycycline concentration (1,100, and 1,000 ng/ml); NK cell to target cell ratio is 5:1. (D) Flow cytometry analysis of mucin levels on NK-92 cells following incubation with control buffer or 100 nM recombinant StcE or StcE ΔX409; StcE surface level after incubation probed with anti His-tag antibody and cell-surface mucin level probed with catalytically dead StcE E447D conjugated to Cy5. Statistical significance is given by ns—not significant, *P≤0.05, **P≤0.01, ***P≤0.001, ****P≤0.0001. Results are a representative dataset from 3 independent replicates. […]
# NK-92 cell surface = assay: Flow cytometry of StcE surface level on NK-92 cells (anti His-tag); assay type: cell-based; details: after washing with buffer; no additional molecular tether
# Protocol: Cells were plated, grown for 24 hours, and then induced with various concentrations of doxycycline for 24 hours. Adherent cells were detached by incubating with Accutase (Innovative Cell Technologies) at 37° C. for 10 minutes. GFP nanobody conjugated Alexa Fluor 647, Neutravidin conjugated DyLight 650, CF640R PNA, Alexa Fluor 647 HPA, and biotin MAL-II were diluted 1:200 in 0.5% BSA PBS and incubated with cells at 4° C. for 30 minutes for each stain. For analysis of Muc1 cell surface expression level, anti-Human Muc Clone HMPV was diluted 1:200 in 0.5% BSA PBS and incubated with cells at 4° C. (for 1 hour. Secondary labelling was with Alexa Fluor 647 conjugated goat anti-mouse, diluted 1:1000 in 0.5% BSA PBS and incubated with cells at 4° C. for 1 hour. For analysis of StcE mucinase binding to NK-92 cells, NK cells were incubated with StcE at 37° C. for 1 hour. Cells were thoroughly washed to remove StcE and coculture with target cells. Anti-6× His-tag antibody was diluted 1:100 in 0.5% BSA PBS and incubated with cells at 4° C. for 1 hour. Secondary labelling was with Alexa Fluor 647 goat anti-rabbit IgG, diluted 1:500 in 0.5% BSA PBS or FluoTag-X2 anti-AFLA conjugated with Alexa Fluor 647 was diluted 1:200 in 0.5% BSA PBS and incubated with cells at 4° C. for 1 hour. […]
molecule,measurement,setting,value
B1,removal / cleavage of cell-surface mucin,[1],could actively digest Muc
same,binding and retention on the NK-92 cell surface,NK-92 cell surface,not retained
